One assay relates to G3BP-1 F15A mutant. Particulars: isothermal titration calorimetry; ref [28]; cited from earlier work. An excerpt:
The importance of the hydrophobic FGDF-binding site of G3BP-1 has been validated in previous binding studies using mutated versions of G3BP in which Phe-33 and Phe-15 were substituted to tryptophan and alanine, respectively. Both Phe-33 and Phe-15 are localized centrally within the hydrophobic binding site that coordinates the phenylalanine residues of the FGDF motif (figure 2b,c).
(In general: ITC needs no label: the signal is the heat of the interaction.)

The target of assay [1] is nsP3-F3AC of virus SFV-F3AC (Semliki Forest virus).
In assay [2] the target is GFP-nsP3-36 (GFP fused to the C-terminal 36 residues of SFV nsP3, C-terminal His tag) (Semliki Forest virus). The experiment in a line: MST.
Assay [3] addresses GFP-nsP3-36-F3AC (Semliki Forest virus). The experiment in a line: MST.
For assay [4], the target named is GFP-nsP3-36-F3AN (Semliki Forest virus). The experiment in a line: MST.
Assay [5] deals with GFP-nsP3-36-F3ANC (Semliki Forest virus). The experiment in a line: MST.

In the case of “DSGFSFGSK [nucleoporin (Nup)-derived peptide]”, in the assay on G3BP-1 F15A mutant, the “binding affinity to F15A mutant of G3BP-1” value is listed as “five times lower binding affinity”.

In turn, “G3BP-1 (endogenous, BHK cells) (from UniProt A0A9J7JVX0 1-465) (natural protein)” showed a G3BP-1 in the IP relative to SFV WT (densitometry) in assay [1] of 49.5%.

Turning to “NTF2-like domain of human G3BP-1 (residues 1-139) (from UniProt Q13283 1-139) (domain or fragment)”, the binding constant of the high-affinity binding event stood at 150 nM in assay [2] and 410 nM in assay [3]. Also, the binding constant of the low-affinity binding event turned out to be 4.1 µM in assay [2] and 23 µM in assay [3]. In addition, the Kd in assay [4] stood at 5.8 µM; in assay [5], 17 µM.

In general, Kd refers to the constant that tells how readily two partners part at equilibrium. Lower therefore signals tighter binding.
